Assays:
[1] = molecular target: T1, genetically modified and chemically inactivated C. difficile toxoid A (Clostridium difficile, UniProt P16154 2-2710); assay: ITC
T1 construct: also called TxdA; the toxoid

C. difficile toxin A = C. difficile toxin A (Clostridium difficile, UniProt P16154 1-2710); assay: cell-based or functional assay

Binder	DH [1] [kcal/mol]	Kd [1] [nM]	Stoichiometry [1]	EC50 TcdA [RLU], toxin neutralization assay (TNA) on IMR90 cells (C. difficile toxin A) [RLU]
hCDIFA-29 (antibody, V domains shown) VH: EVQLLESGAEVKKPGASIRVSCKASGHSFTDSFTDYYFHWVRQAPGQGLEWMGMINPSVGSTNYAQKFQGRVTLTRDTSTHTVYMELSSLRSEDTAVYFCARDPWFCSRGTSCYYFGLWGQGTLVTVSS VL: DIQLTQSPSSLSASVGDSVTITCRASQSISTYLNWYQQKPGKAPKLLIYDASSLLSGVPSRFSGGGSGTDFTLTISSLQPEDFATYYCQQSDISPPVFGRGTKVEIKR	-15.6	74	9.2	–
hCDIFA-28 (antibody, V domains shown) VH: QVQLVQSGAQVKKPGSSVKVSCKASGYAFISYGITWVRQAPGQGLEWMGWISAYNGDTNYAQKFQGRVTMTTDTSTNTAYMELRSLRSDDTAVYYCARALTRVAVALPHPYWGQGTLVTVSS VL: not shown	–	–	–	25800
hCDIFA-18 (antibody, V domains shown) VH: QVQLVQSGAEVKKPGASVKVSCKASGYTFTSYAMHWVRQAPGQRLEWMGWINAGNGNTKYSQEFQGRVTITRDTSASTAYMELSSLRSEDMAVYYCARAHLPGYCSSTSCYIMYVWGKGTTVTVSS VL: not shown	–	–	–	1330
hCDIFA-2 (antibody, V domains shown) VH: QVQLVESGGGLVQPGGSLRLSCAASGFTFSSYAMSWVRQAPGKGPEWVSNIIGSGGSTYFTDSVKGRFTISRDNSKNTVYLQMNSLRAEDTAVYYCAKEGCRGYDSGNYFAPKMFCLWGQGTLVTVSS VL: NFMLTQPASVSGSPGQSITISCTGTSSDIGAYNYVSWYQQHPGTAPKLMIYEVSHRPSGVSNRFSGSKSGDTASLTISGLQAEDEADYYCSSYTTSITYVFGTGTKLTVLG	–	–	–	~38
hCDIFA-22 (antibody, V domains shown) VH: QVQLVQSGGGLVQPGGSLRLSCSASGFTFSSYAMHWVRQAPGKGLEYVSAISSNGGSTYYADSVKGRFTISRDNSKNTLYLQMSSLRAEDTAVYYCVRAAAGNWFDPWGQGTLVTVSS VL: AIRMTQSPSSVSASVGDRVTITCRASQGISSWLAWYQQKPGKAPKLLIYAASSLQSGVPSRFSGSGSGTDFTLTISSLQPEDFATYYCQQANSFPLTFGGGTKVDIKR	–	–	–	~16
hCDIFA-34 (antibody, V domains shown) VH: QVQLVESGGDLIQPGESLRLSCVASGFTVGSHYMTWVRQAPGKGLEWVSTIYSGGTTKYADSVKGRFTISRDNSKNTLFLQMNSLRTEDTAVYFCARGSAFSSSWWLVDFWGQGTLVTVSS VL: SYELTQPPSVSVAPGKTARITCEDNYVGGNNVHWYQQKPGQAPVLVVSDDNARPSGIPERVSGSKSGNTATLIINRVEVGDEADFYCQVWDSSRDRVLFGGGTKLTVLG	–	–	–	247
hCDIFA-30 (antibody, V domains shown) VH: EVQLVESGAEVKRPGASVKVSCRTSAYAFTNYFMHWVRQAPGQGLEWVAVINLSGGNTNYAQSFQGRVNMTRDTSTSTVYMELSSLRSEDTAVYFCAIGGIWFGEYPNWFDPWGQGTLVTVSS VL: NFMLTQPPSVSAAPGRKVTVSCSGSSSNIGNNYVSWYQQFPGTAPKLLIYDNNKRHSGIPARFSGSKSGTSATLGITGLQTGDEADYYCATWDSSLKYVVFGGGTKLTVLG	–	–	–	1480
hCDIFA-48 (antibody, V domains shown) VH: QVQLVQSGAEVKKPGASVKVSCKASGYTFTTYAMHWVRQAPGHRLEWMGWINPVNGNSKHSQNFQGRVTITRDTSASTVYMELSSLRSEDTAVYYCARDTSSGVILANNFDYWGQGTLVTVSS VL: DIVMTQSPATLSLSPGERATLSCRASQSVDSYLTWYQQKPGQAPRLLIYDSSNRATGIPARFSGSGSGTDFTLTISSLEPEDFAVYYCHQRSNWPNTFGQGTKVEIKR	-7.2	87	0.77	–
hCDIFA-23 (antibody, V domains shown) VH: QVQLVQSGGGVVQPGRSLRLSCAASGFTFSQYSIHWVRQAPGKGLEWVAVMSYDGRNKYYADSVKGRFTISGDNSRNTLYVQMNSLRAEDTAIYYCARDLIKAAMVPAFDIWGQGTMVTVSS VL: TALTQPRSVSGSPGQSVTISCTGTNSDVADYNYVSWYQHHPGKAPKLMIYDVTKRPSGVPDRFSGSKSGNTASLTISGLQAEDEADYYCCSYAARYTFGGGTKLTVLG	–	–	–	136
hCDIFA-33 (antibody, V domains shown) VH: QVQLVQSGGGLVQPGGSLRLSCVASGFTFSSYAMTWVRQAPGMGLEWVSTISLSGSTIYYADSVKGRFTISRDNPKNTLYLQMNSLRAEDTAVYYCAEGQGAFDFWGQGTMVTVSS VL: NFMLTQPPSASGTPGQRVTISCSGSTSNIGGNTVNWYQQLPGTAPKLLIYSNIQRPSGVPDRFSGSKSGTSASLAIRGLRSEDEADYYCSTWDDSRKGVVFGGGTKLTVLG	-3	31	0.83	–
hCDIFA-13 (antibody, V domains shown) VH: QVQLVQSGAEVKKPGASVTVSCRTSGYTFTNDYVHWVRQAPGQGLEWVGLINPSGGNTVYAQSFQGRVTMTRDTSTSTVYMELSSLRSEDTAVYYCARVVHDYGKFDPWGQGTPVTVSS VL: SYELTQPASVSGSPRQSITISCTGTSSDVGNYNLVSWYQQYPGKAPRLIIFEVRQRPSGVSNRFSGSKSGNTASLTISGLQAADEADYYCCSYAGRSIWVFGGGTKLTVLG	–	–	–	26300
hCDIFA-12 (antibody, V domains shown) VH: QVQLVQSGAEVKKPGASVKVSCKASGYTFSDSYMHWVRQAPGQGLEWMGRINPNSGGTNYAQKFQGRVTMTRDTSIKTVYMELSRLRSDDGAIYYCARGMGRTTTGLFDLWGQGTLVTVSS VL: DIVMTQSPATLSLSPGERATLSCKANESVGSYLVWYQQKFGQAPRLLIYDASNRATGIPARFSGSGSGTDFTLTISSLEPEDFAVYYCQQRSNWPPTFGGGTKVDIKR	–	–	–	~115
hCDIFA-20 (antibody, V domains shown) VH: EVQLVQSGAEVRIPGASVKVSCKASGFTFNDYYIHWVRQAPGQGLEWMGWINAHNGVTSYAQNFQDRVTMTRDTSITTAYMDLSRLRSDDTAVYYCARDCSTSSCFDHWGQGSLVTVSS VL: SYELTQPPSLSVAPGKTAKITCGGNNIGSKGVHWYQQRPGQAPVLVIYYNADRPSGIPERFSGSNSGNTATLTISRVEAGDEADYFCQVWDGDSAHRVFGGGTKLTVLG	–	–	–	3200
hCDIFA-16 (antibody, V domains shown) VH: QVQLQESGPGLVKPSETLSLTCTVSGDSISDYYWSWIRQPPGRGLEWIGYIYYSGSTNYNPSLKSRLTISVDTSKNQFSLNLSSVTAADTAVYYCARSMGHYDFWNTYFPCFDPWGQGTLVTVSS VL: EIVMTQSPGTLSLSPGERATLSCRASQSVSSGYLAWYQQKPGQAPRLLIYGASSRATGIPDRFRGSGSGTDFTLTISRLEPEDFAVYYCQQYGSSPLTFGGGTKLEIKR	–	–	–	298
hCDIFA-26 (antibody, V domains shown) VH: EVQLLESGAEVKKPGESLRISCNCSGYSFTSYWIGWVRQMPGEGLEWMGLIQPGGDSYPRYSPSFQGQVTISADKSISTAYLQWRSLKASDTAMYYCARRGFDHWGQGTLVTVSS VL: NFMLTQPPSASGAPGQRVTISCSGSSSNIGSNTVNWYQQLPGTAPKLLIYSNIQRPSGVPDRFSGSKSGTSASLAISGLQSDDEADYYCSAWDDSLNGYVFGTGTKVTVLG	-9.1	8	1.98	–
hCDIFA-14 (antibody, V domains shown) VH: EVQLVQSGAEVKKPGSSVKVSCKASGGTFRSYAISWVRQAPGQGLEWMGGFIPIPGIRNYAQKFQGRLTISADESTSTGYMELSSLTSEDTAVYYCARGLGRVSHYFYYMDVWGKGTTVTVSS VL: not shown	–	–	–	19800

From patent US20230218735A1 (Pfizer, published 2023)
